From patent publication US20220281976A1 (Alector, published 2022) come the findings set out here.

The chains are these.
T1: mouse CD33 Fc fusion protein (mouse, UniProt Q63994 18-240, limits assumed)
T1 construct: also called mCD33-Fc
T1 sequence: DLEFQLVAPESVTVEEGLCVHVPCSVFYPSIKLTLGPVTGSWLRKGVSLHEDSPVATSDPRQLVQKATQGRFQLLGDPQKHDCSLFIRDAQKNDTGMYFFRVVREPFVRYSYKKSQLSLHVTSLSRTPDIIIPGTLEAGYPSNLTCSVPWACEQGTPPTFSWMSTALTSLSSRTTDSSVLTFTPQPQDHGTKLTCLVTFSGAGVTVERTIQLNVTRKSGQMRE

B1: C-45 (antibody, V domains shown)
VH: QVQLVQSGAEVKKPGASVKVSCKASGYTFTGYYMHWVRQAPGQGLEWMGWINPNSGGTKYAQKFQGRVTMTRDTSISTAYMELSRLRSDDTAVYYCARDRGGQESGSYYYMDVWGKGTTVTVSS
VL: DIQMTQSPSSVSASVGDRVTITCRASQGISSWLAWYQQKPGKAPKLLIYAASSLQSGVPSRFSGSGSGTDFTLTISSLQPEDFATYYCQQAYSFPTFGGGTKVEIK
notes: human IgG1
B2: C-5 (antibody, V domains shown)
VH: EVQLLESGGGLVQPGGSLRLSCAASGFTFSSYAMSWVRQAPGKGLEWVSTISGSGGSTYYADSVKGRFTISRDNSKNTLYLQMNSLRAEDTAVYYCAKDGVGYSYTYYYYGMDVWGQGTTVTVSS
VL: EIVLTQSPGTLSLSPGERATLSCRASQSVSSSFLAWYQQKPGQAPRLLIYGASSRATGIPDRFSGSGSGTDFTLTISRLEPEDFAVYYCQQVSSFPPTFGGGTKVEIK
notes: human IgG1
B3: C-41 (antibody, V domains shown)
VH: QLQLQESGPGLVKPSETLSLTCTVSGGSISSSSYYWGWIRQPPGKGLEWIGSISYSGSTYYNPSLKSRVTISVDTSKNQFSLKLSSVTAADTAVYYCAREGGKGMDVWGQGTLVTVSS
VL: EIVLTQSPGTLSLSPGERATLSCRASQSVSSSFLAWYQQKPGQAPRLLIYGASSRATGIPDRFSGSGSGTDFTLTISRLEPEDFAVYYCQQFGDLPTFGGGTKVEIK
notes: human IgG1
B4: C-44 (antibody, V domains shown)
VH: QLQLQESGPGLVKPSETLSLTCTVSGGSISSSSYAWGWIRQPPGKGLEWIGSIYYSGSTYYNPSLKSRVTISVDTSKNQFSLKLSSVTAADTAVYYCAREGYVAAYGMDVWGQGTTVTVSS
VL: DIQMTQSPSSLSASVGDRVTITCRASQSISSYLNWYQQKPGKAPKLLIYAASSLQSGVPSRFSGSGSGTDFTLTISSLQPEDFATYYCQQAYYPPWTFGGGTKVEIK
notes: human IgG1
B5: C-56 (antibody, V domains shown)
VH: EVQLVESGGGLVQPGGSLRLSCAASGFTFSSYWMSWVRQAPGKGLEWVANIKQDGSEKYYVDSVKGRFTISRDNAKNSLYLQMNSLRAEDTAVYYCARDYGSVAGTPFDYWGQGTLVTVSS
VL: B4 VL with A91V, Y92L, Y93H, P94T, W96L
notes: human IgG1
B6: C-57 (antibody, V domains shown)
VH: EVQLVESGGGLVQPGGSLRLSCAASGFTFSSYSMNWVRQAPGKGLEWVSYISSSSSTIYYADSVKGRFTISRDNAKNSLYLQMNSLRAEDTAVYYCARGGEGRPYLDIWGQGTMVTVSS
VL: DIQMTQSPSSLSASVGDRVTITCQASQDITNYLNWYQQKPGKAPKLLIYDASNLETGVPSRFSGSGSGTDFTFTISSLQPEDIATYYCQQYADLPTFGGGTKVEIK
notes: human IgG1
B7: C-43 (antibody, V domains shown)
VH: QVQLVQSGAEVKKPGASVKVSCKASGYTFTSYYMHWVRQAPGQGLEWMGVINPSGGSTSYAQKFQGRVTMTRDTSTSTVYMELSSLRSEDTAVYYCAREEAVAADLGVDVWGQGTTVTVSS
VL: not shown
notes: human IgG1
B8: C-24 (antibody, V domains shown)
VH: B7 VH with E100S, A101Q, V102Y, A103Y, A104D, D105V, L106H, V108M
VL: B4 VL with A91S, Y92V, Y93T, W96L
notes: human IgG1
B9: C-59 (antibody, V domains shown)
VH: B7 VH with E100G, V102N, A103Y, A104D, D105S, L106S, V108L, V110A, T116L
VL: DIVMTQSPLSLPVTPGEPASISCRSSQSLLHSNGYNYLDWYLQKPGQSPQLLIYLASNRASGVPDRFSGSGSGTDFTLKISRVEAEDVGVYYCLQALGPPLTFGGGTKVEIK
notes: human IgG1
B10: C-27 (antibody, V domains shown)
VH: B7 VH with E100S, A101Q, V102Y, A103Y, A104D, D105V, L106H, V108M
VL: B4 VL with A91H, Y93D, P94I, W96L
notes: human IgG1

Substitutions are numbered along the chain they refer to.
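Wherever T cell MFI is given: binding of anti-CD33 antibodies at 10 ug/ml to human primary T cells, 1 h on ice, detected with PE-labelled secondary antibody, read as flow cytometry MFI.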

T4 sequence (P20138 18-259 limits assumed): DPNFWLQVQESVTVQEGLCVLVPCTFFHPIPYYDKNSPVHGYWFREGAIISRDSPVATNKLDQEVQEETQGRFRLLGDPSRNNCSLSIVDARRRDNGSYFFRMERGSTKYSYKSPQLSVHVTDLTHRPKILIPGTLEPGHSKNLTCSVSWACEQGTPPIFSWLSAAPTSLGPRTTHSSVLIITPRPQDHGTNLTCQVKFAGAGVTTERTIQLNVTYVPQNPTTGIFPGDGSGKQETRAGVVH

In one assay the target is T2, human CD33 (human, UniProt P20138 18-364).
T2 construct: CD33 on human primary dendritic cells, macrophages, monocytes and T cells and on CHO cells expressing recombinant human CD33; also called Siglec-3; hCD33
T2 sequence (P20138 18-364): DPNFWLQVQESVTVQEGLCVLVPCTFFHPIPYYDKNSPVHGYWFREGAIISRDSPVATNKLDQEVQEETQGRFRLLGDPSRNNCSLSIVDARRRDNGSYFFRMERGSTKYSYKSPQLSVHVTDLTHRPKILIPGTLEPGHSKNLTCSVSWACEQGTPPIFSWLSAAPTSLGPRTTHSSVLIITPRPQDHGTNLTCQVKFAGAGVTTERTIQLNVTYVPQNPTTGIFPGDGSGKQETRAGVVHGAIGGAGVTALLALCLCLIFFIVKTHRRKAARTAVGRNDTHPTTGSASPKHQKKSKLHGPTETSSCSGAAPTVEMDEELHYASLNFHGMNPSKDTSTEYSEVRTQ
Nature of the assay: flow cytometry, human primary T cells. (A flow cytometer gives signals particle by particle.)
Regarding B1, the “T cell MFI” value stood at 55.4.

Turning to B2, the “T cell MFI” value stood at 357.

In the case of B3, the “T cell MFI” value came out at 208.

In the case of B4, the “T cell MFI” value was determined as 310.

Take B5: the “T cell MFI” value was found to be 230.

Regarding B6, the “T cell MFI” value was 234.

As to B7, the “T cell MFI” value turned out to be 192.

With B8, the “T cell MFI” value was 193.

B9: the “T cell MFI” value worked out at 191.

Turning to B10, the “T cell MFI” value turned out to be 414.

The next assay deals with T1, mouse CD33 Fc fusion protein. Put plainly: ForteBio BLI or MSD-SET.
With B1, the binding result is listed as “no binding (tested: 100 nM)”.

For the molecule B2, the binding result was “no binding (tested: 100 nM)”.

With B3, the binding result is listed as “no binding (tested: 100 nM)”.

On to B4, for which the binding result was “no binding (tested: 100 nM)”.

B5: the binding result was “no binding (tested: 100 nM)”.

Regarding B6, the binding result is “no binding (tested: 100 nM)”.

As for B7, the binding result is on record as “no binding (tested: 100 nM)”.

Take B8: the binding result was “no binding (tested: 100 nM)”.

Take B9: the binding result is “no binding (tested: 100 nM)”.

As to B10, the binding result is listed as “no binding (tested: 100 nM)”.

The target of another assay is T3, human CD33 Fc fusion protein (human, UniProt P20138 18-259).
T3 construct: also called hCD33-Fc; human CD33/Fc chimera (R&D Systems)
T3 sequence (P20138 18-259 limits assumed): as the sequence (P20138 18-259 limits assumed) above
Nature of the assay: RBC adhesion to plate-bound CD33-Fc; antibody 1.0 ug/ml.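 Further: red blood cells adhering to plate-coated CD33-Fc after 1 h antibody pretreatment, then 1 h at room temperature, bound cells read as peroxidase activity after lysis.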
Take B1: the “Percent RBC Binding to CD33” value amounted to 110%.

On to B2, for which the “Percent RBC Binding to CD33” value was determined as 13.8%.

As to B3, the “Percent RBC Binding to CD33” value was determined as 8.19%.

With B4, the “Percent RBC Binding to CD33” value was 10.5%.

Regarding B5, the “Percent RBC Binding to CD33” value was found to be 10.5%.

Take B6: the “Percent RBC Binding to CD33” value came to 10.6%.

B7: the “Percent RBC Binding to CD33” value turned out to be 8.99%.

On to B8, for which the “Percent RBC Binding to CD33” value was 8.98%.

Consider B9, for which the “Percent RBC Binding to CD33” value was 10.7%.

For the molecule B10, the “Percent RBC Binding to CD33” value came to 12.6%.

Another assay deals with T2, human CD33. Nature of the assay: flow cytometry, human primary dendritic cells.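 Further: binding of anti-CD33 antibodies (10 ug/ml, 1 h on ice) to human primary dendritic cells, detected with a PE-labelled secondary antibody, reported as flow cytometry MFI.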
Experimental: Initial characterization of CD33 antibodies involved determining their ability to bind CD33 expressed on a CHO cell line, on human primary monocytes, human primary macrophages, human primary dendritic cells, and on human primary T cells. Cells were harvested, plated at 10⁶/ml in a 96 well plate, and incubated in 100 ul PBS containing 2% FBS, 2 mM EDTA and 10 ug/ml Mab and Fc blocking reagent for 1 hour in ice. Cells were washed twice and incubated in 100 ul PBS containing 2% FBS, 2 mM EDTA and 5 ug/ml PE-conjugated secondary antibody for 30 minutes on ice. Cells were washed twice in cold PBS and analyze by flow cytometry on a BD FACS Canto. Data analysis and calculation of MFI values was performed with FlowJo (TreeStar) software version 10.0.7.
For B1, the “DC MFI” value was determined as 1150.

As for B2, the “DC MFI” value stood at 1460.

Regarding B3, the “DC MFI” value was found to be 1810.

As for B4, the “DC MFI” value turned out to be 1520.

Turning to B5, the “DC MFI” value came to 1560.

For B6, the “DC MFI” value worked out at 1490.

For B7, the “DC MFI” value stood at 1500.

Take B8: the “DC MFI” value worked out at 1230.

In the case of B9, the “DC MFI” value came to 1130.

Take B10: the “DC MFI” value stood at 1300.

Another assay has as its target T3, human CD33 Fc fusion protein. Put plainly: RBC adhesion to plate-bound CD33-Fc; antibody 0.5 ug/ml.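 Further: Plate-coated CD33-Fc preincubated 1 h with antibody, then red blood cells added for 1 h at room temperature, adherent cells lysed and quantified via peroxidase activity.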
Experimental: Briefly, 5 ug/ml CD33-Fc was coated overnight at RT in 96 well Immunolon plates, then washed with PBS, blocked for one hour with binding buffer (PBS containing %0.25 BSA 1 mM CaCl₂). CD33 antibodies (0.5 ug/ml or 1.0 ug/ml) or Fabs (25 ug/ml) were bound for one hour at RT with gentle rocking. After removal of unbound antibody, red blood cells were added to each well at a concentration of 3.0×10⁶ cells per ml and incubated at RT for one hour. Unbound RBCs were then carefully washed off 3× with PBS, and water was added to each well for hypotonic lysis of bound RBCs. The plate was transferred to −80° C. for 10 minutes, followed by 37° C. for 15 minutes. Bound RBCs were detected by peroxidase activity, followed by 2N sulfuric acid to stop the reaction.
For B1, the “Percent RBC Binding to CD33” value is 114%.

Take B2: the “Percent RBC Binding to CD33” value is 19.8%.

For the molecule B3, the “Percent RBC Binding to CD33” value stood at 10.7%.

Turning to B4, the “Percent RBC Binding to CD33” value came to 13.3%.

For B5, the “Percent RBC Binding to CD33” value amounted to 15.7%.

For the molecule B6, the “Percent RBC Binding to CD33” value was determined as 15.8%.

Turning to B7, the “Percent RBC Binding to CD33” value was 13.8%.

As for B8, the “Percent RBC Binding to CD33” value stood at 13%.

With B9, the “Percent RBC Binding to CD33” value worked out at 18.2%.

Turning to B10, the “Percent RBC Binding to CD33” value stood at 15.9%.

The target in another assay is T2, human CD33. Put plainly: flow cytometry, human primary monocytes.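 Further: binding of anti-CD33 antibodies at 10 ug/ml to human primary monocytes, 1 h on ice, detected by PE-labelled secondary antibody, flow cytometry readout as mean fluorescence intensity.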 Also on record: reference not given here.
As for B1, the “Monocyte MFI” value came to 182.

As for B2, the “Monocyte MFI” value worked out at 177.

On to B3, for which the “Monocyte MFI” value amounted to 180.

Turning to B4, the “Monocyte MFI” value amounted to 161.

In the case of B5, the “Monocyte MFI” value was determined as 136.

For B6, the “Monocyte MFI” value came out at 162.

Take B7: the “Monocyte MFI” value is 151.

For the molecule B8, the “Monocyte MFI” value amounted to 165.

For the molecule B9, the “Monocyte MFI” value came out at 140.

As to B10, the “Monocyte MFI” value came out at 113.

The next assay addresses T2, human CD33. Nature of the assay: cell-based or functional assay.
As to B1, the “Percent CD33 Surface Expression, DC % CD33” value stood at 65.7% and the “Percent CD33 Surface Expression, Monocyte % CD33” value was 78.2%.

With B2, the “Percent CD33 Surface Expression, DC % CD33” value stood at 43.1%; the “Percent CD33 Surface Expression, Macrophage % CD33” value stood at 73.3%; the “Percent CD33 Surface Expression, Monocyte % CD33” value is 54.7%.

With B3, the “Percent CD33 Surface Expression, DC % CD33” value stood at 18.6%; the “Percent CD33 Surface Expression, Macrophage % CD33” value turned out to be 39.5%; the “Percent CD33 Surface Expression, Monocyte % CD33” value came to 40.8%.

Consider B4, for which the “Percent CD33 Surface Expression, DC % CD33” value came to 14.7%; the “Percent CD33 Surface Expression, Macrophage % CD33” value came to 57.3%; the “Percent CD33 Surface Expression, Monocyte % CD33” value was 24.8%.

On to B5, for which the “Percent CD33 Surface Expression, DC % CD33” value turned out to be 19.7%; the “Percent CD33 Surface Expression, Macrophage % CD33” value came to 40%; the “Percent CD33 Surface Expression, Monocyte % CD33” value stood at 41.6%.

As to B6, the “Percent CD33 Surface Expression, DC % CD33” value turned out to be 20.7%; the “Percent CD33 Surface Expression, Macrophage % CD33” value was 41.8%; the “Percent CD33 Surface Expression, Monocyte % CD33” value is 37.1%.

Regarding B7, the “Percent CD33 Surface Expression, DC % CD33” value was found to be 24.5%; the “Percent CD33 Surface Expression, Macrophage % CD33” value amounted to 42.5%; the “Percent CD33 Surface Expression, Monocyte % CD33” value is 34.9%.

Turning to B8, the “Percent CD33 Surface Expression, DC % CD33” value was 28.8%; the “Percent CD33 Surface Expression, Macrophage % CD33” value is 42.7%; the “Percent CD33 Surface Expression, Monocyte % CD33” value was determined as 43.1%.

Regarding B9, the “Percent CD33 Surface Expression, DC % CD33” value turned out to be 24.7%; the “Percent CD33 Surface Expression, Macrophage % CD33” value came to 41.5%; the “Percent CD33 Surface Expression, Monocyte % CD33” value worked out at 37.5%.

As to B10, the “Percent CD33 Surface Expression, DC % CD33” value was 37.8%; the “Percent CD33 Surface Expression, Macrophage % CD33” value was 46.3%; the “Percent CD33 Surface Expression, Monocyte % CD33” value amounted to 39.1%.

The target in the next assay is T3, human CD33 Fc fusion protein. Nature of the assay: ForteBio BLI or MSD-SET, IgG, avid. (Biolayer interferometry detects binding as a change in optical thickness at a sensor tip.)
By Kd is commonly meant the equilibrium constant for the complex coming apart. In the case of B1, binding was put at a Kd of 2.25 nM.

Consider B2, for which binding was put at a Kd of 3.17 nM.

In the case of B3, the Kd came out at 1.06 nM.

B4 registered a Kd of 0.612 nM.

B5: the affinity, expressed as Kd, was 1.1 nM.

In turn, B6 had a Kd of 1.8 nM.

In the case of B7, binding was put at a Kd of 2.06 nM.

In the case of B8, binding was characterised by a dissociation constant (Kd) of 1.54 nM.

On to B9, for which the Kd came to 1.6 nM.

Take B10: the Kd was found to be 1.67 nM.

The next assay concerns the target T4, human monomeric His tagged CD33 protein (human, UniProt P20138 18-259).
T4 construct: also called hCD33-His
Nature of the assay: ForteBio BLI or MSD-SET, IgG, monomeric antigen.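 Further: BLI: antibodies captured on AHQ sensors, 100 nM antigen association 5 min, dissociation 5 min, 1:1 fit. MSD-SET: antigen fixed at 50 pM, antibody titrated, quadratic fit.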
In turn, B1 gave a Kd of 12.8 nM.

B2 came in with a Kd of 15.6 nM.

As for B3, the Kd is 4.37 nM.

On to B4, for which the Kd was determined as 2.62 nM.

With B5, the Kd amounted to 4.98 nM.

In the case of B6, the Kd was found to be 7.67 nM.

The molecule B7 came in with an equilibrium dissociation constant (Kd) of 9.04 nM.

B8 had a Kd of 6.95 nM.

On to B9, for which binding was characterised by a dissociation constant (Kd) of 9.16 nM.

For the molecule B10, the Kd turned out to be 10.9 nM.

Another assay concerns the target T2, human CD33. Put plainly: flow cytometry, human primary macrophages.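 Further: binding of CD33 antibodies at 10 µg/ml to human primary macrophages, 1 h on ice, detected with PE-labelled secondary antibody by flow cytometry, reported as MFI.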
For B1, the “Macrophage MFI” value is 1010.

As for B2, the “Macrophage MFI” value was determined as 866.

In the case of B3, the “Macrophage MFI” value was 945.

Take B4: the “Macrophage MFI” value was found to be 892.

For the molecule B5, the “Macrophage MFI” value was 846.

For the molecule B6, the “Macrophage MFI” value stood at 867.

For the molecule B7, the “Macrophage MFI” value came to 908.

Turning to B8, the “Macrophage MFI” value stood at 752.

B9: the “Macrophage MFI” value worked out at 598.

Consider B10, for which the “Macrophage MFI” value was found to be 602.
